# Reference: patent publication US20200385441A1 (TECHNION RESEARCH AND DEVELOPMENT FOUNDATION, published 2020)
# B1: BA3 biotinylated peptide-H-2Kd-anti-MCSP scFv fusion protein, 20 amino acid β2M-MHC linker (peptide-MHC)
# chain: TYQRTRALVGGGGSGGGGSGGGGSIQKTPQIQVYSRHPPENGKPNILNCYVTQFHPPHIEIQMLKNGKKIPKVEMSDMSFSKDWSFYILAHTEFTPTETDTYACRVKHVSMAEPKTVYWDRDMGGGGSGGGGSGGGGSGGGGSGPHSLRYFVTAVSRPGLGEPRFIAVGYVDDTQFVRFDSDADNPRFEPRAPWMEQEGPEYWEEQTQRAKSDEQWFRVSLRTAQRYYNQSKGGSHTFQRMFGCDVGSDWRLLRGYQQFAYDGRDYIALNEDLKTWTAADTAALITRRKWEQAGDAEYYRAYLEGECVEWLRRYLELGNETLLRTDSPKAHVTYHPRSQVDVTLRCWALGFYPADITLTWQLNGEDLTQDMELVETRPAGDGTFQKWAAVVVPLGKEQNYTCHVHHKGLPEPLTLRWKLPPSTASGGQVKLQQSGGGLVQPGGSMKLSCVVSGFTFSNYWMNWVRQSPEKGLEWIAEIRLKSNNFGRYYAESVKGRFTISRDDSKSSAYLQMINLRAEDTGIYYCTSYGNYVGHYFDHWGQGTTVTVSSGGGGSGGGGSGGGGSDIELTQSPKFMSTSVGDRVSVTCKASQNVDTNVAWYQQKPGQSPEPLLFSASYRYTGVPDRFTGSGSGTDFTLTISNVQSEDLAEYFCQQYNSYPLTFGGGTKLEIKRAHHHHHHGLNDIFEAQKIEWH
# notes: also called BA-biotin fusion molecule; biotinylated ScFv-MHC molecule
# Target: T1, human Melanoma-associated Chondroitin Sulfate Proteoglycan (MCSP) (human, UniProt Q6UVK1 30-2322)
# T1 construct: whole, on cells; also called CSPG4; NG2
# Test: flow cytometry on B16F10-MCSP (C25) cells, detected with Strep-PE or fold-specific anti-H-2K antibody
# T1 sequence (Q6UVK1 30-2322): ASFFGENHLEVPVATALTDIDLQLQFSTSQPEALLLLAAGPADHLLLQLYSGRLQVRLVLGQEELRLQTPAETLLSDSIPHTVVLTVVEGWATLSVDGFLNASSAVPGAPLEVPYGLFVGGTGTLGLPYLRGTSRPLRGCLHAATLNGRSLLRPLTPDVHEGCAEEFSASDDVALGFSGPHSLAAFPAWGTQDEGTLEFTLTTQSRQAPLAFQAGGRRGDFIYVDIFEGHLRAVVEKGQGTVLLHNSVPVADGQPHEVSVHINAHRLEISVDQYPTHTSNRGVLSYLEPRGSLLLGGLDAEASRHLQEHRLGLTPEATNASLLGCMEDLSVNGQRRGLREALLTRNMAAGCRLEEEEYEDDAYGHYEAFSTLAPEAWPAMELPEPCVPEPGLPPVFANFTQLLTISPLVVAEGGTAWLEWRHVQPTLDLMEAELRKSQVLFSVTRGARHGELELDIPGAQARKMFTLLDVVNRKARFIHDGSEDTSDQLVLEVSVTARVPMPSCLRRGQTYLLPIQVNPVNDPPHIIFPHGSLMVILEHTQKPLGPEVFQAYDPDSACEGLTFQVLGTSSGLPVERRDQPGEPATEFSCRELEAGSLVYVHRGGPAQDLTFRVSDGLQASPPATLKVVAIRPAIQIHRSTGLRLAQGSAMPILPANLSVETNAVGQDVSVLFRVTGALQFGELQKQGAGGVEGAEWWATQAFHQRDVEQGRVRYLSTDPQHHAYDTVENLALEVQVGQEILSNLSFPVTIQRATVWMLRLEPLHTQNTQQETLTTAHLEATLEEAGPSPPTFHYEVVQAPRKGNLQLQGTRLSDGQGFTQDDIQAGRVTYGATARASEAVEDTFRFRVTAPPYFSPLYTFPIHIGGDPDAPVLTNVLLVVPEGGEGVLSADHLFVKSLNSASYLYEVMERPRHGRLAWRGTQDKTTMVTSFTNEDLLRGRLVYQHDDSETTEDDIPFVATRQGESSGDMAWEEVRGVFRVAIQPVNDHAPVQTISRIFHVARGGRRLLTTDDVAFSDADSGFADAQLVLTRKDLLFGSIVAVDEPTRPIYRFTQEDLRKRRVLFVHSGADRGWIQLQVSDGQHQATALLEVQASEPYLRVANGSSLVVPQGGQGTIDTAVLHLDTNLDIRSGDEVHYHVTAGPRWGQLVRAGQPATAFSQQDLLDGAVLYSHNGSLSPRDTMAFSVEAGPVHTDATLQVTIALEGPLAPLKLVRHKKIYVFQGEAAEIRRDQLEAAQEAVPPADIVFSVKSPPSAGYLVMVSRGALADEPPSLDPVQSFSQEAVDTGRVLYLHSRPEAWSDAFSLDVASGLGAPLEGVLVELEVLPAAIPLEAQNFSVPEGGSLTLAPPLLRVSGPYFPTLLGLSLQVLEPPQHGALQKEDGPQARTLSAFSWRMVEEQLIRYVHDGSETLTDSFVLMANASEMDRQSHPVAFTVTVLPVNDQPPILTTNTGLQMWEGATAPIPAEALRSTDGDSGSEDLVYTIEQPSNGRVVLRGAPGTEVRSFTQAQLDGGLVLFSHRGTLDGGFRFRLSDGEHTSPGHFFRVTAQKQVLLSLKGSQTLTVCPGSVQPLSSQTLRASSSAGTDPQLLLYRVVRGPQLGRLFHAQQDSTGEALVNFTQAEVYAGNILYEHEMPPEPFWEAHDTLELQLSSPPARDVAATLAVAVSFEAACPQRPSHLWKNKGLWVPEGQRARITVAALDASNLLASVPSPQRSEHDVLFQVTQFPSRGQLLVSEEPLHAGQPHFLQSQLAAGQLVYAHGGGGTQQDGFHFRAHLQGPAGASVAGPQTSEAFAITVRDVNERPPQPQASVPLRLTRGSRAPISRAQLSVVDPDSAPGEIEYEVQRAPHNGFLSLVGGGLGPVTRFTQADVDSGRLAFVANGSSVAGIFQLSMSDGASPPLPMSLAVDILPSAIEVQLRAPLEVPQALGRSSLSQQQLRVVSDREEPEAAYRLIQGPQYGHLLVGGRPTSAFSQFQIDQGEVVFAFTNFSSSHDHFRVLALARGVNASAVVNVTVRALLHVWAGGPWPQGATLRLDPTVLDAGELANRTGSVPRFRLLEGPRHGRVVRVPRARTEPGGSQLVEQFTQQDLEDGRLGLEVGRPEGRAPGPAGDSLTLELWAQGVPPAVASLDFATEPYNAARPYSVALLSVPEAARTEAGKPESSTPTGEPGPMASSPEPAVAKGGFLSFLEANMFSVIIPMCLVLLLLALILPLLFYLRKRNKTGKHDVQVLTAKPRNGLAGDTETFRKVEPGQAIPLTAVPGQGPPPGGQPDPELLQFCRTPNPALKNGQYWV
binder,measurement,value
B1,binding result,binds
